Test results as given in article PMC2993637.

How the values were obtained:
[1] = biological target: MLL transactivation domain (Homo sapiens) (UniProt Q03164); conditions: cited from earlier work
[2] = biological target: KIX domain (residues 586-672) of mouse CBP, L628A (mouse) (UniProt P45481); test: NMR titration
[3] = biological target: KIX domain (residues 586-672) of mouse CBP, wild type (mouse) (UniProt P45481); test: NMR titration
[4] = biological target: KIX domain (residues 586-672) of mouse CBP, wild type (mouse) (UniProt P45481); test: ITC

Substance | Kd [1] [nM] | Kd1 (primary site, two-site model) [2] [µM] | Kd2 (secondary site, two-site model) [2] [mM] | percent of KIX in the MLL-bound form (1:2 KIX:MLL) [2] [%] | Kd2 (secondary site, two-site model) [3] [µM] | percent of KIX in the MLL-bound form (1:1 KIX:MLL) [3] [%] | Kd [4] [nM]
CBP KIX (from UniProt P45481) | 2800 | – | – | – | – | – | –
Human MLL transactivation domain (2842-2469 as printed) (domain or fragment) | – | 220 | 1.63 | 74 | 920 | 94 | 2100
